Target: PELI1 (UniProt Q96FA3)
Assay: anti-Flag co-immunoprecipitation, immunoblot
Details: reference: wild type; sites T382

HPD (from UniProt P32754) T382A
binding against the reference: lost

From paper PMC6753076
